# B1: U4/U6 small nuclear ribonucleoprotein Prp31 (Homo sapiens), Q8WWY3 (parent)
# chain: MSLADELLADLEEAAEEEEGGSYGEEEEEPAIEDVQEETQLDLSGDSVKTIAKLWDSKMFAEIMMKIEEYISKQAKASEVMGPVEAAPEYRVIVDANNLTVEIENELNIIHKFIRDKYSKRFPELESLVPNALDYIRTVKELGNSLDKCKNNENLQQILTNATIMVVSVTASTTQGQQLSEEELERLEEACDMALELNASKHRIYEYVESRMSFIAPNLSIIIGASTAAKIMGVAGGLTNLSKMPACNIMLLGAQRKTLSGFSSTSVLPHTGYIYHSDIVQSLPPDLRRKAARLVAAKCTLAARVDSFHESTEGKVGYELKDEIERKFDKWQEPPPVKQVKPLPAPLDGQRKKRGGRRYRKMKERLGLTEIRKQANRMSFGEIEEDAYQEDLGFSLGHLGKSGSGRVRQTQVNEATKARISKTLQRTLQKQSVVYGGKSTIRDRSSGTASSVAFTPLQGLEIVNPQAAEKKVAEANQKYFSSMAEFLKVKGEKSGLMST
# partner: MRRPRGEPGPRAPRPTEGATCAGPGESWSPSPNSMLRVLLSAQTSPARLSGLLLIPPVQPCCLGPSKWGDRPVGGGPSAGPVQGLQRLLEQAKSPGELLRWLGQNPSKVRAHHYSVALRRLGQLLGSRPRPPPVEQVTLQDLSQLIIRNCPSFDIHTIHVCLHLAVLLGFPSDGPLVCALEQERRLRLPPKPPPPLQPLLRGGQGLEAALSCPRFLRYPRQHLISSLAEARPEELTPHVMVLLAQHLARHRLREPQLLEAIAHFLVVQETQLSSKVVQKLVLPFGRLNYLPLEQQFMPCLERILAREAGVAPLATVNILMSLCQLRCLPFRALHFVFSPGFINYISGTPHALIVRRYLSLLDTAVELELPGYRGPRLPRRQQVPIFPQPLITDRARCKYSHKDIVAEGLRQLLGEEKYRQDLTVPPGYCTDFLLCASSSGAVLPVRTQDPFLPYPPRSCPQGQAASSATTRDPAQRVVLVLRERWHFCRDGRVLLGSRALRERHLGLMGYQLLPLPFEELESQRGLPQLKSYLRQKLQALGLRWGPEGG
# B2: Mothers against decapentaplegic homolog 3 (Homo sapiens), P84022 (parent)
# chain: MSSILPFTPPIVKRLLGWKKGEQNGQEEKWCEKAVKSLVKKLKKTGQLDELEKAITTQNVNTKCITIPRSLDGRLQVSHRKGLPHVIYCRLWRWPDLHSHHELRAMELCEFAFNMKKDEVCVNPYHYQRVETPVLPPVLVPRHTEIPAEFPPLDDYSHSIPENTNFPAGIEPQSNIPETPPPGYLSEDGETSDHQMNHSMDAGSPNLSPNPMSPAHNNLDLQPVTYCEPAFWCSISYYELNQRVGETFHASQPSMTVDGFTDPSNSERFCLGLLSNVNRNAAVELTRRHIGRGVRLYYIGGEVFAECLSDSAIFVQSPNCNQRYGWHPATVCKIPPGCNLKIFNNQEFAALLAQSVNQGFEAVYQLTRMCTIRMSFVKGWGAEYRRQTVTSTPCWIELHLNGPLQWLDKVLTQMGSPSIRCSSVS
# partner: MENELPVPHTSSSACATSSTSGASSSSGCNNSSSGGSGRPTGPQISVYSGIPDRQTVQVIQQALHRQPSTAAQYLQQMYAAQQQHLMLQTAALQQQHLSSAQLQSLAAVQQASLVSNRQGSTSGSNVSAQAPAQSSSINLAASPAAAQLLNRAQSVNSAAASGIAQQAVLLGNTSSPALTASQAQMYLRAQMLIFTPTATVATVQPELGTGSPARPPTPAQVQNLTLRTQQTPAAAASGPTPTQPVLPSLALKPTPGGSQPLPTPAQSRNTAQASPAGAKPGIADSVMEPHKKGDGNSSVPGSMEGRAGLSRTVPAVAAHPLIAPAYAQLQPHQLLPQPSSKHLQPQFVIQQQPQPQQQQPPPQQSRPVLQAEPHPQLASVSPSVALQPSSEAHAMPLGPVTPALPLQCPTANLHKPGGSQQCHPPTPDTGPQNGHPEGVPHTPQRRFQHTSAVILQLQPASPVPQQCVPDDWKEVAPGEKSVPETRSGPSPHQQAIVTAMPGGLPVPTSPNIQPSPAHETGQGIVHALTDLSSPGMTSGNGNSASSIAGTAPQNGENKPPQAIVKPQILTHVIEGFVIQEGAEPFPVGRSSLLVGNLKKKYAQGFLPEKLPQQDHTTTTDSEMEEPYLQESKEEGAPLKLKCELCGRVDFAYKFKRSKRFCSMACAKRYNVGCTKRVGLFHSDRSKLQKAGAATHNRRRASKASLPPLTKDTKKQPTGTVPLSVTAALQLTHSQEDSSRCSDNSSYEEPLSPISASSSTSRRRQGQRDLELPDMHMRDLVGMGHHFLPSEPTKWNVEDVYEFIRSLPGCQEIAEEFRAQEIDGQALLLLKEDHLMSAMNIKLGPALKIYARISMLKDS
# B3: Vitamin D3 receptor (Homo sapiens), P11473 (parent)
# chain: MEAMAASTSLPDPGDFDRNVPRICGVCGDRATGFHFNAMTCEGCKGFFRRSMKRKALFTCPFNGDCRITKDNRRHCQACRLKRCVDIGMMKEFILTDEEVQRKREMILKRKEEEALKDSLRPKLSEEQQRIIAILLDAHHKTYDPTYSDFCQFRPPVRVNDGGGSHPSRPNSRHTPSFSGDSSSSCSDHCITSSDMMDSSSFSNLDLSEEDSDDPSVTLELSQLSMLPHLADLVSYSIQKVIGFAKMIPGFRDLTSEDQIVLLKSSAIEVIMLRSNESFTMDDMSWTCGNQDYKYRVSDVTKAGHSLELIEPLIKFQVGLKKLNLHEEEHVLLMAICIVSPDRPGVQDAALIEAIQDRLSNTLQTYIRCRHPPPGSHLLYAKMIQKLADLRSLNEEHSKQYRCLSFQPECSMKLTPLVLEVFGNEIS
# B4: Inactive peptidyl-prolyl cis-trans isomerase FKBP6 (Homo sapiens), O75344 (parent)
# chain: MGGSALNQGVLEGDDAPGQSLYERLSQRMLDISGDRGVLKDVIREGAGDLVAPDASVLVKYSGYLEHMDRPFDSNYFRKTPRLMKLGEDITLWGMELGLLSMRRGELARFLFKPNYAYGTLGCPPLIPPNTTVLFEIELLDFLDCAESDKFCALSAEQQDQFPLQKVLKVAATEREFGNYLFRQNRFYDAKVRYKRALLLLRRRSAPPEEQHLVEAAKLPVLLNLSFTYLKLDRPTIALCYGEQALIIDQKNAKALFRCGQACLLLTEYQKARDFLVRAQKEQPFNHDINNELKKLASCYRDYVDKEKEMWHRMFAPCGDGSTAGES
# partner: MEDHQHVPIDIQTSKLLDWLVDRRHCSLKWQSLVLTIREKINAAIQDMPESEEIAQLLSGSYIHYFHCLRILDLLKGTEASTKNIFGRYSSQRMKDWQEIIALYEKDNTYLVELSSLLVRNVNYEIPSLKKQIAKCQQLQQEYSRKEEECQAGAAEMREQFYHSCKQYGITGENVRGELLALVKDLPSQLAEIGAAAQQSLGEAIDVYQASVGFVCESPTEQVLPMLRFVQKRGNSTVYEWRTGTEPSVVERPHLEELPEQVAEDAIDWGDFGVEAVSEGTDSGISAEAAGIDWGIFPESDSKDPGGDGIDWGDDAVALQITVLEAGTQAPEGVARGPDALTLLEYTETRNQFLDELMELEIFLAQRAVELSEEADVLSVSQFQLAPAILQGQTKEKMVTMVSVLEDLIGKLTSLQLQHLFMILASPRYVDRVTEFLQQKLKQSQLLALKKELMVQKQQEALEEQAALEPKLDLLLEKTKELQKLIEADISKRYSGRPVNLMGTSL
# B5: U4/U6 small nuclear ribonucleoprotein Prp31 (Homo sapiens), Q8WWY3 (parent)
# chain: B1 chain
# partner: B2 partner
# Variants of: B1
# Conditions: with fastk_human FASTK
row,effect of a mutation on the interaction,Variant
1,with no effect,L107V

# Variants of: B2
# Conditions: with PHC2, Q8IXK0-5
row,effect of a mutation on the interaction,Variant
1,with no effect,I170V
2,with no effect,N197I

# Variants of: B3
# Conditions: with meox2_human MEOX2, P50222
# Chain of meox2_human MEOX2, P50222 (P50222 whole entry): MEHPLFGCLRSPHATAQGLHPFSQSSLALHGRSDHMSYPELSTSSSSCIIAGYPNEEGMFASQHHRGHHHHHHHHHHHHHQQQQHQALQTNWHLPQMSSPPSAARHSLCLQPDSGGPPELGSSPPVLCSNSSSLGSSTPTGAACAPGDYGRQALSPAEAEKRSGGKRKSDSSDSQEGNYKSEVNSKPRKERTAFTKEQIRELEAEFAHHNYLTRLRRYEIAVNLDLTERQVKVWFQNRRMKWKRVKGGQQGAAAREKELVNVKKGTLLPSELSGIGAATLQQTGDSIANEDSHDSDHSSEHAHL
row,Variant,effect of a mutation on the interaction
1,C190W,disrupting interaction strength
2,I268T,with no effect

# Continued, values first:
row,effect of a mutation on the interaction,Variant
1,with no effect,G33D
2,disrupting interaction strength,E329K

# Variants of: B4
# Conditions: with ck5p3_human CDK5RAP3, Q96JB5
row,effect of a mutation on the interaction,Variant
1,disrupting interaction strength,F72L
2,with no effect,R202H

# Variants of: B5
# Conditions: with PHC2, Q8IXK0-5
row,effect of a mutation on the interaction,Variant
1,with no effect,L107V

# — IntAct's records for PubMed 25910212
